In US20230227514A1, “BETA-ARRESTIN COMPOSITIONS AND ASSOCIATED METHODS” (Duke University, priority 2020, published 2023):

Legend:
[1] = target: T1, D2R (Homo sapiens, UniProt P14416); assay: Confocal trafficking and colocalization with D2R; type: cell-based; conditions: HEK-293 cells stably expressing D2R
T1 construct: HA (N); expressed in transfected cells
Protocol: (§1) Immunostaining and confocal microscopy. […] Twenty-four hours post-transfection, cells were serum-starved for 4 h, and either left untreated or treated with respective agonists for the indicated times in the Figure descriptions. After stimulation, cells were fixed with 5% formaldehyde diluted in phosphate-buffered saline (PBS), permeabilized with 0.1% Triton in PBS containing 2% bovine serum albumin for 20 min and incubated at room temperature with appropriate primary antibody. The next day, cells were washed three times with PBS and incubated with Alexa594 conjugated secondary antibody for 1 h, followed by repeated washes using PBS. Confocal images were acquired using Zeiss LSM510 laser-scanning microscope using multitrack sequential with excitation (488 and 568 nm) and emission (BP 505-550 nm and LP 585 nm) filter sets. Images (1024×1024 pixels) were collected using either a 63× or 100× oil immersion lens. Images were processed for Figure presentation using Adobe Photoshop software, and any increase or decrease of brightness/contrast was applied to the entire image. The nuclear rim localization of YFP-βarrestin2-SUMO1 is readily visualized in cells with low to moderate expression of YFP-protein. In cells with high expression, this localization is present, and can be discerned by enlarging sections of the nuclear rim. […]

[2] = target: T2, RanGAP1 (Homo sapiens, UniProt P46060); assay: Confocal colocalization with endogenous RanGAP1 at the nuclear envelope; type: cell-based; conditions: HEK-293 cells with or without β2AR agonist stimulation
T2 construct: endogenous in cells; host or cells: HEK-293T / HEK-293
T2 sequence (P46060 2-587 limits assumed): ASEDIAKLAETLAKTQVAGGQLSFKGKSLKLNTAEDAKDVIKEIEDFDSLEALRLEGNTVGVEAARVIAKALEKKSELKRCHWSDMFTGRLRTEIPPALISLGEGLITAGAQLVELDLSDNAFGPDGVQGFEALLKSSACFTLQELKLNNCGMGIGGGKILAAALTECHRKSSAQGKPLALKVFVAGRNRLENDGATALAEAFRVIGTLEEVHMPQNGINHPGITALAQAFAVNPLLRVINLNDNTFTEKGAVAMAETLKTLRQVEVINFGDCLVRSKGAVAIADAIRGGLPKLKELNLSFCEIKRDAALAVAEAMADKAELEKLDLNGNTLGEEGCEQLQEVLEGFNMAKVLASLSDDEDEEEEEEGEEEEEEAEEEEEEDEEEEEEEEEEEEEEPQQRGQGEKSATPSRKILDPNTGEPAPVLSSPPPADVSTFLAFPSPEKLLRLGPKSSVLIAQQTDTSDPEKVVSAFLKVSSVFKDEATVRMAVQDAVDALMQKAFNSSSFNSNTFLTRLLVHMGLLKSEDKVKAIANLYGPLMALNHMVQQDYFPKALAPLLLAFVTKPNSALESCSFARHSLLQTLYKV
T2 sequence (P63165 2-97 partner limits assumed): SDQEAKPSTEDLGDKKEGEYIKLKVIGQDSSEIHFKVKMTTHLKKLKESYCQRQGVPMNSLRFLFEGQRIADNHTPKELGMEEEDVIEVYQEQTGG
Protocol: as §1

[3] = target: T2, RanGAP1; assay: Co-immunoprecipitation of YFP-βarrestin2 constructs with endogenous RanGAP1; type: binding; conditions: IP of YFP proteins, probed for RanGAP1
Excerpt: HEK-293T cells were transiently transfected with indicated plasmids and subjected to coimmunoprecipitation with GFP IgG (3E6, Thermo Fisher) to immunoprecipitate YFP-βarrestin2 or YFP-βarrestin2-SUMO1 (“IP: YFP”). IPs were probed for endogenous RanGAP1, and for βarrestins. Cell lysates were also blotted to determine total cell protein levels (“Lysates”). Blots shown are from one of three independent experiments.

[4] = target: T3, D1 dopamine receptor (D1R) (Homo sapiens, UniProt P21728); assay: Confocal trafficking and colocalization with D1R; type: cell-based; conditions: HEK-293 cells with stable D1R expression; dopamine 15 minutes
T3 construct: expressed in transfected cells
T3 sequence (P21728 whole entry): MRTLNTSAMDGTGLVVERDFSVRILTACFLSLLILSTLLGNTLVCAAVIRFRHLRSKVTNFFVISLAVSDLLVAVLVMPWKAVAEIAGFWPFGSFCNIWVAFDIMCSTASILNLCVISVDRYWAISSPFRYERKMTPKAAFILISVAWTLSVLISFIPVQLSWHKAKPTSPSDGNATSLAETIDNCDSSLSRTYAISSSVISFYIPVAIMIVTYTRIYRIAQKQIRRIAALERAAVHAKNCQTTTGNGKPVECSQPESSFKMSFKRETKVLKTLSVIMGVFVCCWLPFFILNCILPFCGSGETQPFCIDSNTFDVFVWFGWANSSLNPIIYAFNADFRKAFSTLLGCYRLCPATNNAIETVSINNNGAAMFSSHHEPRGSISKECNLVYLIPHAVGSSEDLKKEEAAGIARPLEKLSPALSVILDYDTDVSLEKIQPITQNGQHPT
Protocol: as §1

[5] = target: T4, D2 dopamine receptor (D2R) (Homo sapiens, UniProt P14416); assay: Co-immunoprecipitation of βarrestin2 constructs with HA-D2R; type: binding; conditions: HEK-293 cells stably expressing HA-D2R, co-IP
T4 construct: expressed in transfected cells
T4 sequence (P14416 whole entry): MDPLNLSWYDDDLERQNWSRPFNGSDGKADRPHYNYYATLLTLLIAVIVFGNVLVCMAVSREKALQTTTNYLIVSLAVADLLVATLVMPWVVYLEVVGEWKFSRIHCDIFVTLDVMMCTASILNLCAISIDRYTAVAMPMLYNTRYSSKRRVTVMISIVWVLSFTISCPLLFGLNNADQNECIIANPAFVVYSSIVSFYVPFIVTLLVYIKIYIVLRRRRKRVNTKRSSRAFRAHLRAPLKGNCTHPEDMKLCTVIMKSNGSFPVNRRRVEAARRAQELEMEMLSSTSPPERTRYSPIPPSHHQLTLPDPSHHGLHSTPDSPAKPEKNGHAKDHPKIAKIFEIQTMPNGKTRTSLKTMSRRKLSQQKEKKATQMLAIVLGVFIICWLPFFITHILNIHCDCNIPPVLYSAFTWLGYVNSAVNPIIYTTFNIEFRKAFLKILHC
Protocol: (§2) Cross-linking, Immunoprecipitation and Immunoblotting. […] Twenty-four hours post-transfection, cells were starved in PBS containing 10 mM HEPES (pH 7.4) for 1 h and stimulated with vehicle or agonist (isoproterenol, 1 μM; or AVP 1 μM, or Dopamine 1 μM) at 37° C. for desired times. After stimulations, β2AR stable cells were treated with the crosslinker DSP to a final concentration of […], and plates were rocked for 20 min at room temperature. Reaction was quenched by adding 25 μl of 1M Tris-Cl pH 8.5 per 1 mL volume of buffer in the dish and rocked for additional 5 min at room temperature.
(§3) Harvested cells were washed with ice-cold PBS (pH 7.4) and solubilized in an ice-cold lysis buffer (50 mM HEPES (pH 7.5), 2 mM EDTA, 250 mM NaCl, 10% (v/v) glycerol, and 0.5% (v/v) IGEPAL CA-630) that was supplemented with phosphatase and protease inhibitors (1 mM sodium orthovanadate, 1 mM sodium fluoride, 1 mM phenylmethylsulfonyl fluoride, 5 μg/ml leupeptin, 5 μg/ml aprotinin, 1 μg/ml pepstatin A, and 100 μM benzamidine). […] Cell lysate protein concentrations were determined by Bradford protein assay and equivalent μg of proteins were immunoprecipitated using anti-FLAG M2 antibody resin (for FIG. 2) or Anti-HA magnetic beads from Thermo Pierce (for FIG. 5, FIG. 7, and FIG. 8). […] HA-D2R or HA-V2R were detected using an anti-HA IgG (Cell Signaling Technologies). […]

[6] = target: T5, β2AR (Homo sapiens, UniProt P07550); assay: Chemical cross-linking and co-immunoprecipitation of βarrestin2 constructs with Flag-β2AR; type: binding; conditions: HEK-293 cells stably expressing FLAG-β2AR; 5 minutes of 1 μM isoproterenol; DSP cross-linking, co-IP, Western blot
T5 construct: Flag (N); expressed in transfected cells
Protocol: as §2, §3

[7] = target: T6, V2R (Homo sapiens, UniProt P30518); assay: Co-immunoprecipitation of βarrestin2 constructs with HA-V2R; type: binding; conditions: HEK-293 cells stably expressing HA-V2R; AVP
T6 construct: HA (N); expressed in transfected cells
Protocol: Twenty-four hours post-transfection, cells were starved in PBS containing 10 mM HEPES (pH 7.4) for 1 h and stimulated with vehicle or agonist (isoproterenol, 1 μM; or AVP 1 μM, or Dopamine 1 μM) at 37° C. for desired times. After stimulations, β2AR stable cells were treated with the crosslinker DSP to a final concentration of 480 nM, and plates were rocked for 20 min at room temperature. Reaction was quenched by adding 25 μl of 1M Tris-Cl pH 8.5 per 1 mL volume of buffer in the dish and rocked for additional 5 min at room temperature.

[8] = target: T7, β1 adrenergic receptor (β1AR) (Homo sapiens, UniProt P08588); assay: Confocal trafficking and colocalization with β1AR; type: cell-based; conditions: HEK-293 cells with stable β1AR expression
T7 construct: expressed in transfected cells
T7 sequence (P08588 whole entry, species assumed): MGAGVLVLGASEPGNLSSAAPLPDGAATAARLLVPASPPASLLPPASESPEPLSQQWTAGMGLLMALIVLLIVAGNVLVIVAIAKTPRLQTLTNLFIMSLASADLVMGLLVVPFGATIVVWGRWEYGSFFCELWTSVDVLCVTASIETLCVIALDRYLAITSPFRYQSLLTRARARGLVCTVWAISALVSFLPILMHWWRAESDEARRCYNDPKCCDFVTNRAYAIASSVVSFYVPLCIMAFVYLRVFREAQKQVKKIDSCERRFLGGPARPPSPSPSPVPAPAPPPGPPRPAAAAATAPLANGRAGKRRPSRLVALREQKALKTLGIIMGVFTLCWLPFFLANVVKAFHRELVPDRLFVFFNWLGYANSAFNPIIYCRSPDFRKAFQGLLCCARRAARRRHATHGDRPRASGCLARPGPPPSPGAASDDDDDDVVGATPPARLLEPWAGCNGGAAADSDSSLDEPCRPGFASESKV
Protocol: Immunostaining and confocal microscopy. […] Twenty-four hours post-transfection, cells were serum-starved for 4 h, and either left untreated or treated with respective agonists for the indicated times in the Figure descriptions. After stimulation, cells were fixed with 5% formaldehyde diluted in phosphate-buffered saline (PBS), permeabilized with 0.1% Triton in PBS containing 2% bovine serum albumin for 20 min and incubated at room temperature with appropriate primary antibody. The next day, cells were washed three times with PBS and incubated with Alexa594 conjugated secondary antibody for 1 h, followed by repeated washes using PBS. Confocal images were acquired using Zeiss LSM510 laser-scanning microscope using multitrack sequential with excitation (488 and 568 nm) and emission (BP 505-550 nm and LP 585 nm) filter sets. Images (1024×1024 pixels) were collected using either a 63× or 100× oil immersion lens. Images were processed for Figure presentation using Adobe Photoshop software, and any increase or decrease of brightness/contrast was applied to the entire image. The nuclear rim localization of YFP-βarrestin2-SUMO1 is readily visualized in cells with low to moderate expression of YFP-protein. In cells with high expression, this localization is present, and can be discerned by enlarging sections of the nuclear rim.

T1 sequence (P14416 whole entry): as the sequence (P14416 whole entry) above

βarrestin2-SUMO1: rat βarrestin2 polypeptide fused to human SUMO1 (SEQ ID NO:1); used YFP- or Flag-tagged
stability of association with activated D2R (confocal) [1]: associate stably
colocalization with endogenous RanGAP1 at the nuclear envelope [2]: dramatic increase in colocalization
association with endogenous RanGAP1 forms by co-immunoprecipitation [3]: associated only with SUMO-RanGAP1
association with D1R after dopamine activation (confocal) [4]: strongly and stably
binding to activated D2R relative to wild-type βarrestin2 ([5]; 20 minutes of 1 μM dopamine, Western blot): 3-4 fold
D2R-binding affinity versus βarrestin2 ([5]; five minutes of 1 μM dopamine): no significant difference
binding to activated β2AR relative to WT βarrestin2 [6]: 2-3 fold
binding with agonist activated V2Rs by co-immunoprecipitation [7]: equivalent binding
association with β1AR after isoproterenol activation (confocal) [8]: strongly and stably
